{"source": "patent US20160160238", "assay_in_all_cases": "cell_activity", "key": {"[1]": {"tested_on": "TALEN ssTP53 E6 right (synthetic (Xanthomonas TALE-FokI)?)", "conditions": "Surveyor (Cel) assay, co-transfected with ssNF1 42.3; pair with P7, 16 bp spacer"}, "[2]": {"tested_on": "TALEN ssNF1ex42.2 right (synthetic (Xanthomonas TALE-FokI)?)", "conditions": "HDR by RFLP, pig fibroblasts, 3 days 30 C; pair with P3, 16 bp spacer"}, "[3]": {"tested_on": "TALEN ssNF1ex42.3 right (synthetic (Xanthomonas TALE-FokI)?)", "conditions": "HDR by RFLP, pig fibroblasts, 3 days 30 C; pair with P5, 16 bp spacer; 25.5% when co-transfected with ssTP53 E6"}, "[4]": {"tested_on": "TALEN ssNF1ex42.2 left (synthetic (Xanthomonas TALE-FokI)?)", "conditions": "HDR by RFLP, pig fibroblasts, 3 days 30 C; pair with P4, 16 bp spacer"}, "[5]": {"tested_on": "TALEN ssTP53 E6 left (synthetic (Xanthomonas TALE-FokI)?)", "conditions": "Surveyor (Cel) assay, co-transfected with ssNF1 42.3; pair with P8, 16 bp spacer"}, "[6]": {"tested_on": "TALEN ssNF1ex42.3 left (synthetic (Xanthomonas TALE-FokI)?)", "conditions": "HDR by RFLP, pig fibroblasts, 3 days 30 C; pair with P6, 16 bp spacer; 25.5% when co-transfected with ssTP53 E6"}, "[7]": {"tested_on": "TALEN ssNF1ex42.1 right (synthetic (Xanthomonas TALE-FokI)?)", "conditions": "HDR by RFLP, pig fibroblasts, 3 days 30 C; pair with P1, 16 bp spacer"}, "[8]": {"tested_on": "TALEN ssNF1ex42.1 left (synthetic (Xanthomonas TALE-FokI)?)", "conditions": "HDR by RFLP, pig fibroblasts, 3 days 30 C; pair with P2, 16 bp spacer"}}, "data": [{"sequence": "AAGTCAGAGTACATG (double strand) [TP53 exon 6 site, right half-site]", "values": [{"measurement": "activity", "setting": "[1]", "result": 11.8, "unit": "% cutting"}]}, {"sequence": "ACTGCGATCCTTGATA (double strand) [NF1 exon 42 site, 42.2 right half-site]", "values": [{"measurement": "activity (% allele modification)", "setting": "[2]", "result": 45.1}]}, {"sequence": "CCTTGATAAGCTGATA (double strand) [NF1 exon 42 site, 42.3 right half-site]", "values": [{"measurement": "activity (% allele modification)", "setting": "[3]", "result": 27.2}]}, {"sequence": "AAGCACAATGATGATGC (double strand) [NF1 exon 42 site, 42.2 left half-site]", "values": [{"measurement": "activity (% allele modification)", "setting": "[4]", "result": 45.1}]}, {"sequence": "GGCACCCGTGTCCGCGC (double strand) [TP53 exon 6 site, left half-site]", "values": [{"measurement": "activity", "setting": "[5]", "result": 11.8, "unit": "% cutting"}]}, {"sequence": "GATGATGCCAAACGAC (double strand) [NF1 exon 42 site, 42.3 left half-site]", "values": [{"measurement": "activity (% allele modification)", "setting": "[6]", "result": 27.2}]}, {"sequence": "GTTACTGCGATCCTTG (double strand) [NF1 exon 42 site, 42.1 right half-site]", "values": [{"measurement": "activity (% allele modification)", "setting": "[7]", "result": 54.2}]}, {"sequence": "TGTAAGCACAATGATGA (double strand) [NF1 exon 42 site, 42.1 left half-site]", "values": [{"measurement": "activity (% allele modification)", "setting": "[8]", "result": 54.2}]}]}
